Assay results taken from doi:10.1101/2025.10.25.684501.

Target: reconstituted silk fibroin (RSF) labelled with DyLight 650 (Bombyx mori) (UniProt P05790)
Assay: MST

Q: “wild-type (WT) α-synuclein (from UniProt P37840 1-140) (natural protein)” was tested. Which Kd did it give?
A: Its Kd is 24 nM.
